Laboratory results reported in patent publication US20090136503A1 (BEIJING COTIMES BIOTECH, published 2009).

Legend:
[1] = biological target: T1, TRAIL-R3-Fc fusion protein (human, UniProt O14798 26-221, limits assumed); assay: ELISA: plate coated with TRAIL-R3-Fc at 1 µg/ml, HRP goat anti-mouse IgG, TMB
T1 construct: The origin of the protein is not described; also called TRAIL-R3-Fc fusion antigen; not shown: human IgG1 Fc
T1 sequence (looked up): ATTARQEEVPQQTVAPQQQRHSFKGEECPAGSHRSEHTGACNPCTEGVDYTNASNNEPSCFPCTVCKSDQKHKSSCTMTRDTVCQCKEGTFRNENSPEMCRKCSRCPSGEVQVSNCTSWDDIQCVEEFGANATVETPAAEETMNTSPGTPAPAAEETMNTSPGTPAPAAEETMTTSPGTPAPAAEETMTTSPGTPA

[2] = biological target: TRAIL-R1 on the surface of human tumor cells (human, UniProt O00220 24-468); assay: cell-based or functional assay
[3] = biological target: T2, TRAIL-R2 on the surface of human tumor cells (human, UniProt O14763 56-440); assay: flow cytometry on Jurkat cells (said to express TRAIL-R2 only, not TRAIL-R1), PE goat anti-mouse IgG1
T2 construct: whole, on cells; also called DR5; CD262

[4] = biological target: BSA (bovine serum albumin), negative control (bovine, UniProt P02769 25-607); assay: ELISA: plate coated with BSA (control) at 1 µg/ml, HRP goat anti-mouse IgG, TMB
[5] = biological target: Human IgG1 (control antigen) (human); assay: ELISA; human IgG1 captured on goat anti-human IgG, antibody at 2 µg/ml
[6] = biological target: T3, TRAIL-R4-Fc fusion protein (human, UniProt Q9UBN6 56-211); assay: ELISA: plate coated with TRAIL-R4-Fc at 1 µg/ml, HRP goat anti-mouse IgG, TMB
T3 construct: The origin of the protein is not described; also called TRAIL-R4-Fc fusion antigen; not shown: human IgG1 Fc
T3 sequence (looked up): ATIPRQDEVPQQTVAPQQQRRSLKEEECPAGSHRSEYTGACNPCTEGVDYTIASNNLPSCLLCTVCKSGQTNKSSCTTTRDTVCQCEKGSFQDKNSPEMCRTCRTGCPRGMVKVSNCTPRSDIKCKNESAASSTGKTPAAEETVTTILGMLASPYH

BSA (bovine serum albumin), negative control, sequence (P02769 25-607 limits assumed): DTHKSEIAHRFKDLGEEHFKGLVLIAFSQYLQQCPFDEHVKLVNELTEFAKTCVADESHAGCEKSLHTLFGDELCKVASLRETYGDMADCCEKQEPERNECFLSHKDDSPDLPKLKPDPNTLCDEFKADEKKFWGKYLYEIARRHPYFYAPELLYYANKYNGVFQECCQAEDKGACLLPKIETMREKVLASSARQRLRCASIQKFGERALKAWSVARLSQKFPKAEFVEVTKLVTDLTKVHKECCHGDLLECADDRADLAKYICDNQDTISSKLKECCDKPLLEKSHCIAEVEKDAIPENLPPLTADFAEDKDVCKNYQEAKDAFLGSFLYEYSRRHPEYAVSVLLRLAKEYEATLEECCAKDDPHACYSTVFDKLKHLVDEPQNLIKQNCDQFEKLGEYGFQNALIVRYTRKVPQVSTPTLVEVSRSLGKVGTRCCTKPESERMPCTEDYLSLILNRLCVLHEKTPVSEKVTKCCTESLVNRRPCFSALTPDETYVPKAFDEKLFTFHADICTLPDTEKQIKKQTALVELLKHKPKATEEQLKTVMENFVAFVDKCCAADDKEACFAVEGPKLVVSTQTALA

B1: CTB007 murine monoclonal antibody against TRAIL-R1 (hybridoma CGMCC 1733) (antibody, V domains shown)
VH: EVQLQQSGAELVKPGASVKLSCTASGFNIKDTYMHWVKQRPEQGLEWIGRIDPANGNTKYDPKFQGKATITADTSSNTAYLQLSSLTSEDTAVYYCAYYYVSNAWFTYWGQGTLVTVSA
VL: DIQMTQSPASLSVSVGETVTITCRASENIYSNLEWYQQKQGKSPQLLVYAATNLADGVPSRFSGSGSGTQYSLKINSLQSEDFGSYYCQHFWGTWTFGGGTKLEIK
notes: Murine monoclonal antibody; also called Anti-TRAIL-R1 (CTB007); CTB007-HRP
binding result [1]: no binding (tested: 1000 ng/ml)
IC50 (ng/ml), killing of Carov 3 cells, ATPLite cell viability [2]: 29.5 ng/mL
IC50 (ng/ml), killing of Colo205 cells, ATPLite cell viability [2]: 6.2 ng/mL
IC50 (ng/ml), killing of Du145 cells, ATPLite cell viability [2]: 31.2 ng/mL
IC50 (ng/ml), killing of H-2122 cells, ATPLite cell viability [2]: 25.4 ng/mL
IC50 (ng/ml), killing of MDA231 cells, ATPLite cell viability [2]: 8.2 ng/mL
IC50 (ng/ml), killing of MIAcap cells, ATPLite cell viability [2]: 9.5 ng/mL
binding result [3]: no binding
binding result [4]: no binding (tested: 1000 ng/ml)
OD 450 nm/650 nm [5]: 0.026 OD
binding result [6]: no binding (tested: 1000 ng/ml)
